Measured values: patent US6416738B1, “Pretargeting methods and compounds” (NeoRx Corporation, priority 1973, dated 2002)

Target: T1, NR-LU-10 antigen (Homo sapiens, UniProt P16422)
T1 construct: Positive NR-LU-10 tissue reactivity indicates NR-LU-10 antigen expression by such tissues; from tissue; host or cells: carcinoma and normal tissue specimens
T1 sequence (P16422 24-314): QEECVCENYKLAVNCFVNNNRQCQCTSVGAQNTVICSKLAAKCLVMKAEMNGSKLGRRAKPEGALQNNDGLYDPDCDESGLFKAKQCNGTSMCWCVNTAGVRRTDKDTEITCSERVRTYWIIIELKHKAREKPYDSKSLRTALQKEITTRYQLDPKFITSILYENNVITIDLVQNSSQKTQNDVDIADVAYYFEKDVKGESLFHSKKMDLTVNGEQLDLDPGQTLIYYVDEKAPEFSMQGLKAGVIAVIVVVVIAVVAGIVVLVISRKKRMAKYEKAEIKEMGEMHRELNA
Assay: NR-LU-10 reactivity with normal tissues (Table B)
Format: binding
Excerpt: Radioimmunoassays, immunoprecipitation and Fluorescence-Activated Cell Sorter (FACS) analysis were used to obtain reactivity profiles of NR-LU-10. The NR-LU-10 target antigen was present on either fixed cultured cells or in detergent extracts of various types of cancer cells. For example, the NR-LU-10 antigen is found in small cell lung, non-small cell lung, colon, breast, renal, ovarian, pancreatic, and other carcinoma tissues. Tumor reactivity of the NR-LU-10 antibody is set forth in Table A, while NR-LU-10 reactivity with normal tissues is set forth in Table B. The values in Table B are obtained as described below. Positive NR-LU-10 tissue reactivity indicates NR-LU-10 antigen expression by such tissues.
The tissue specimens were scored in accordance with three reactivity parameters: (1) the intensity of the reaction; (2) the uniformity of the reaction within the cell type; and (3) the percentage of cells reactive with the antibody. These three values are combined into a single weighted comparative value between 0 and 500, with 500 being the most intense reactivity. This comparative value facilitates comparison of different tissues. Table B includes a summary reactivity value, the number of tissue samples examined and the number of samples that reacted positively with NR-LU-10.

[1] = Adenoid: Lymphoid Follicle-Central
[2] = Adenoid: Lymphoid Follicle-Peripheral
[3] = Adrenal: Zona Fasciculata Cortex
[4] = Adrenal: Zona Glomerulosa Cortex
[5] = Adrenal: Zona Reticularis Cortex
[6] = Brain-Cerebellum: Axons, Myelinated
[7] = Brain-Cerebellum: Purkenje's Cells
[8] = Brain-Cerebrum: Axons, Myelinated
[9] = Brain-Midbrain: Axons, Myelinated

B1: NR-LU-10: 150 kilodalton IgG2b monoclonal antibody recognizing an approximately 40 kilodalton glycoprotein antigen expressed on most carcinomas (antibody, V domains shown)
VH: EVQLQQSGAELVKPGASVRLSCTASGFNIKDTYMHWVIERPEQGLEWIGRIDPANGNTKCDPKFQGKATITADTSSNTAYLQLSSLTSEDTAVYYCSREVLTGTWSLDYWGQGTSVTVSS
VL: DIQMIQSPSSMFASLGDRVSLSCRASQGIRGNLDWYQQKPGGTIKLLIYSTSNLNSGVPSRFSGSGSGSDYSLTISSLDSEDFADYYCLQRNAYPYTFGGGTKLEIK
# Pos/Exam (Adenoid): 3/3 | Summary Reactivity (Adenoid): 433 | # Pos/Exam (Adenoid: Epithelium): 0/3 | Summary Reactivity (Adenoid: Epithelium): 0 | # Pos/Exam [1]: 0/3 | Summary Reactivity [1]: 0 | # Pos/Exam [2]: 2/2 | Summary Reactivity [2]: 400 | # Pos/Exam (Adipose Tissue: Fat Cells): 0/3 | Summary Reactivity (Adipose Tissue: Fat Cells): 0 | # Pos/Exam (Adrenal: Medulla): 0/3 | Summary Reactivity (Adrenal: Medulla): 0 | # Pos/Exam [3]: 0/3 | Summary Reactivity [3]: 0 | # Pos/Exam [4]: 0/3 | Summary Reactivity [4]: 0 | # Pos/Exam [5]: 0/3 | Summary Reactivity [5]: 0 | # Pos/Exam (Aorta: Elastic Interna): 0/3 | Summary Reactivity (Aorta: Elastic Interna): 0 | # Pos/Exam (Aorta: Endothelium): 0/3 | Summary Reactivity (Aorta: Endothelium): 0 | # Pos/Exam (Aorta: Tunica Adventitia): 0/3 | Summary Reactivity (Aorta: Tunica Adventitia): 0 | # Pos/Exam (Aorta: Tunica Media): 0/3 | Summary Reactivity (Aorta: Tunica Media): 0 | # Pos/Exam [6]: 0/3 | Summary Reactivity [6]: 0 | # Pos/Exam (Brain-Cerebellum: Microglia): 0/3 | Summary Reactivity (Brain-Cerebellum: Microglia): 0 | # Pos/Exam (Brain-Cerebellum: Neurons): 0/3 | Summary Reactivity (Brain-Cerebellum: Neurons): 0 | # Pos/Exam [7]: 0/3 | Summary Reactivity [7]: 0 | # Pos/Exam [8]: 0/3 | Summary Reactivity [8]: 0 | # Pos/Exam (Brain-Cerebrum: Microglia): 0/3 | Summary Reactivity (Brain-Cerebrum: Microglia): 0 | # Pos/Exam (Brain-Cerebrum: Neurons): 0/3 | Summary Reactivity (Brain-Cerebrum: Neurons): 0 | # Pos/Exam [9]: 0/3 | Summary Reactivity [9]: 0 | # Pos/Exam (Brain-Midbrain: Microglia): 0/3 | Summary Reactivity (Brain-Midbrain: Microglia): 0 | # Pos/Exam (Brain-Midbrain: Neurons): 0/3 | Summary Reactivity (Brain-Midbrain: Neurons): 0 | # Pos/Exam (Colon: Mucosal Epithelium): 3/3 | Summary Reactivity (Colon: Mucosal Epithelium): 500 | # Pos/Exam (Colon: Muscularis Externa): 0/3 | Summary Reactivity (Colon: Muscularis Externa): 0 | # Pos/Exam (Colon: Muscularis Mucosa): 0/3 | Summary Reactivity (Colon: Muscularis Mucosa): 0 | # Pos/Exam (Colon: Nerve Ganglia): 0/3 | Summary Reactivity (Colon: Nerve Ganglia): 0 | # Pos/Exam (Colon: Serosa): 0/1 | Summary Reactivity (Colon: Serosa): 0 | # Pos/Exam (Duodenum: Mucosal Epithelium): 3/3 | Summary Reactivity (Duodenum: Mucosal Epithelium): 500 | # Pos/Exam (Duodenum: Muscularis Mucosa): 0/3 | Summary Reactivity (Duodenum: Muscularis Mucosa): 0 | # Pos/Exam (Epididymis: Epithelium): 3/3 | Summary Reactivity (Epididymis: Epithelium): 419 | # Pos/Exam (Epididymis: Smooth Muscle): 0/3 | Summary Reactivity (Epididymis: Smooth Muscle): 0 | # Pos/Exam (Epididymis: Spermatozoa): 0/1 | Summary Reactivity (Epididymis: Spermatozoa): 0 | # Pos/Exam (Esophagus: Epithelium): 3/3 | Summary Reactivity (Esophagus: Epithelium): 86 | # Pos/Exam (Esophagus: Mucosal Gland): 2/2 | Summary Reactivity (Esophagus: Mucosal Gland): 450 | # Pos/Exam (Esophagus: Smooth Muscle): 0/3 | Summary Reactivity (Esophagus: Smooth Muscle): 0 | # Pos/Exam (Gall Bladder: Mucosal Epithelium): 0/3
